From publication PMC5700921

Molecular target: T1, β-klotho (UniProt Q99N32)
T1 sequence: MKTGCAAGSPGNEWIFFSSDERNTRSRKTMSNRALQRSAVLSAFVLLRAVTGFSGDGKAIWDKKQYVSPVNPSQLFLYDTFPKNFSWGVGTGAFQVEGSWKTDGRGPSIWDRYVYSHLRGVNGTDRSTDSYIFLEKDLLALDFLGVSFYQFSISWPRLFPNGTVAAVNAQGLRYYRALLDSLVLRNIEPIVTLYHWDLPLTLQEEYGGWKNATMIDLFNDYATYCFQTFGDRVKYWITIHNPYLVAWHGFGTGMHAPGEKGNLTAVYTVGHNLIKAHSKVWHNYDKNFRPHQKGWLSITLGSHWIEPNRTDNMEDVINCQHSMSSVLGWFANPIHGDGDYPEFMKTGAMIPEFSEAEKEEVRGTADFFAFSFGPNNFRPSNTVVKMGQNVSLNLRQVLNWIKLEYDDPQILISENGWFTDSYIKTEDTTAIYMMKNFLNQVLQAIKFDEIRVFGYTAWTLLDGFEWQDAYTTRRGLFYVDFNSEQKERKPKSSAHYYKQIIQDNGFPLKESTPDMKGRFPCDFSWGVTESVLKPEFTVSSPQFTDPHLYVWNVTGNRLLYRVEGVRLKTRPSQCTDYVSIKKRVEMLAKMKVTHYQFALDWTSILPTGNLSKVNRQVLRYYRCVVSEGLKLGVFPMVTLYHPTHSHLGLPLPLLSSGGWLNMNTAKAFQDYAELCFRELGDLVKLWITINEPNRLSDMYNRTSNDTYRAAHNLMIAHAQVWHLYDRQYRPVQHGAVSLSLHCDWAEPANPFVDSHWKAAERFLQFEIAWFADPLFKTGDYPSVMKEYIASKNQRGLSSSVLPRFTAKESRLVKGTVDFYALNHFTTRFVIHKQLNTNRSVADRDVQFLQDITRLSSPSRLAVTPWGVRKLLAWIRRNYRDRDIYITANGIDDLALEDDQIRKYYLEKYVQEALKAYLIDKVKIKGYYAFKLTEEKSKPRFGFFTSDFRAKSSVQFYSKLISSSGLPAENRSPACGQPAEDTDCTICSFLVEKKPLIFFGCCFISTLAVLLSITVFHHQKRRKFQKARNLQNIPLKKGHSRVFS

EC50 of proliferation (MTT assay, 24 h) of β-klotho-transfected NIH-3T3 cells, hFGF21 at 0.01-500 ng/mL; untransfected cells showed no proliferative effect (data not shown): 0.3 nM
Substance: purified human fibroblast growth factor 21 (hFGF21), tag-free after TEV cleavage of MBP-hFGF21 (from UniProt Q9NSA1 29-209) (ligand)
